From patent publication US20140295520A1 come the findings set out here.

Data set [1] concerns the target EutMNLK (EutM, EutN, EutL and EutK co-expressed without EutS) (Salmonella enterica LT2). Put plainly: cell-based or functional assay.
In data set [2] the target is EutS (recombinant EutS shell/compartment) (Salmonella enterica LT2) (UniProt Q9ZFV7). Put plainly: cell-based or functional assay.
Data set [3] deals with EutS-G39V mutant (Salmonella enterica LT2). Put plainly: cell-based or functional assay.
For data set [4], the target named is EutSMNLK (recombinant shell of EutS, EutM, EutN, EutL and EutK) (Salmonella enterica LT2) (UniProt Q9ZFV7). Nature of the data set: cell-based or functional assay.
In data set [5] the test system is EutS (recombinant EutS shell/compartment).

With “Enhanced Green Fluorescent Protein (EGFP)”, the % cells with green flourescent foci (E. coli C2566) in data set [1] turned out to be 0.1%; in data set [2] it was 0.5%; in data set [3], 0.3%; in data set [4], 0.2%. Also, the % cells with green flourescent foci (E. coli JM109) is 0.8% in data set [1], 0.6% in data set [2], 2.9% in data set [3] and 1.8% in data set [4].

EutC^1-19-EGFP: in data set [2], the % cells with green flourescent foci (E. coli C2566) was found to be 87% and the % cells with green flourescent foci (E. coli JM109) was 84%. Moreover, in data set [4], the % cells with green flourescent foci (E. coli C2566) was found to be 84% and the % cells with green flourescent foci (E. coli JM109) stood at 79%.

Take “EutC^1-19-BTL-2 fused to EGFP (modular cassette)”: the “fluorescent localization in E. coli” value in data set [5] is on record as “Upon co-expression of EutS, the majority of the tagged lipase localizes to a compartment formed somewhat off-center in E. coli”.
